The values that follow come from PMC4017622.

Where two headings read alike, the source gives them in different places.

The target in series [1] is T1, Pf-SSB (wild type, lacks apicoplast localization signal) (Plasmodium falciparum 3D7, UniProt Q8I415 77-284). Briefly: Trp fluorescence quenching titration.
In series [2] the target is T1, Pf-SSB (wild type, lacks apicoplast …). The series is described as follows: Trp fluorescence quenching titration. The source holds these as a separate data set.
The target in another series is Pf-SSB crystallized form (Plasmodium falciparum 3D7, UniProt Q8I415 77-194). The series is described as follows: X-ray crystallography.

B1: (dT)70 (ssDNA)
DNA: TTTTTTTTTTTTTTTTTTTTTTTTTTTTTTTTTTTTTTTTTTTTTTTTTTTTTTTTTTTTTTTTTTTTTT
Take B1: in series [1], the binding result was “binds”.

B2: (dT)35 (ssDNA)
DNA: TTTTTTTTTTTTTTTTTTTTTTTTTTTTTTTTTTT
B2: the binding result (in series [2]; with Pf-SSB crystallized form) was “binds” each time.
